{"source": "patent US20030211466", "test_system": "HuB (Hel-N2, ELAV-like), Q12926-2", "sequence (Q12926 other isoform, or with tags, fused parts or gaps)": "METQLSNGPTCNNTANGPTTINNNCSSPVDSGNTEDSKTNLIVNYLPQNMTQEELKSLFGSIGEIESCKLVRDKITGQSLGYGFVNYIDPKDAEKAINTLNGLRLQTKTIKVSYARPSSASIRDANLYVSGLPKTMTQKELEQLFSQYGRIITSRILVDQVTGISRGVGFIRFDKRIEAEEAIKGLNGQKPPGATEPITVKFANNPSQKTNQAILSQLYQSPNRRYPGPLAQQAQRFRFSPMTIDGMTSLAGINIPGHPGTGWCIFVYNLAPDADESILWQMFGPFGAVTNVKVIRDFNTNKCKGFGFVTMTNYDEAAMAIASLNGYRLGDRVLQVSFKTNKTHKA", "settings": "increase in HuB RNP on differentiation", "note": "Like-named read-outs stand apart in the source and are kept apart here."}
{"substance": "CACN (calcium channel beta 3) mRNA", "values": [{"measurement": "binding signal", "setting": "total RNA +1.31", "value": 14.5, "unit": "fold"}]}
{"substance": "CELSR mRNA", "values": [{"measurement": "binding signal", "setting": "total RNA -1.33", "value": 9.41, "unit": "fold"}]}
{"substance": "MBNL mRNA", "values": [{"measurement": "binding signal", "setting": "total RNA +1.42", "value": 8.95, "unit": "fold"}]}
